# Measurements published in patent publication US12679878B2, “CRF2 receptor agonists and their use in therapy” (SANOFI, priority 2020, dated 2026).
# Starred links: 1 amine or outer side, 2 acyl side, 3 side chain; linkers in the order of their positions; H or OH if unused. Non-standard residues stand in square brackets, D forms with d. Groups on a side chain read outwards from the residue. No end group written: not given here. *: point of attachment. C20 diacid = O=C(O)CCCCCCCCCCCCCCCCCCC(=O)*; C18 diacid = O=C(O)CCCCCCCCCCCCCCCCC(=O)*; C16 diacid = O=C(O)CCCCCCCCCCCCCCC(=O)*; γGlu = O=C(O)[C@H](CCC(=O)[*:2])N[*:1]; Palmitoyl = CCCCCCCCCCCCCCCC(=O)*; AEEA = NCCOCCOCC(=O)O; Aib = CC(C)(N)C(=O)O
# B1: SEQ ID NO: 26 (peptide)
# peptide: IVLSLD[dV]PTKLK([γGlu-Palmitoyl])KKLLKQERKRKERE[Aib]AEKNARILERV-NH2
# modifications: N-terminus assumed
# SMILES: CCCCCCCCCCCCCCCC(=O)N[C@@H](CCC(=O)NCCCC[C@H](NC(=O)[C@H](CC(C)C)NC(=O)[C@H](CCCCN)NC(=O)[C@@H](NC(=O)[C@@H]1CCCN1C(=O)[C@H](NC(=O)[C@H](CC(=O)O)NC(=O)[C@H](CC(C)C)NC(=O)[C@H](CO)NC(=O)[C@H](CC(C)C)NC(=O)[C@@H](NC(=O)[C@@H](N)[C@@H](C)CC)C(C)C)C(C)C)[C@@H](C)O)C(=O)N[C@@H](CCCCN)C(=O)N[C@@H](CCCCN)C(=O)N[C@@H](CC(C)C)C(=O)N[C@@H](CC(C)C)C(=O)N[C@@H](CCCCN)C(=O)N[C@@H](CCC(N)=O)C(=O)N[C@@H](CCC(=O)O)C(=O)N[C@@H](CCCNC(=N)N)C(=O)N[C@@H](CCCCN)C(=O)N[C@@H](CCCNC(=N)N)C(=O)N[C@@H](CCCCN)C(=O)N[C@@H](CCC(=O)O)C(=O)N[C@@H](CCCNC(=N)N)C(=O)N[C@@H](CCC(=O)O)C(=O)NC(C)(C)C(=O)N[C@@H](C)C(=O)N[C@@H](CCC(=O)O)C(=O)N[C@@H](CCCCN)C(=O)N[C@@H](CC(N)=O)C(=O)N[C@@H](C)C(=O)N[C@@H](CCCNC(=N)N)C(=O)N[C@H](C(=O)N[C@@H](CC(C)C)C(=O)N[C@@H](CCC(=O)O)C(=O)N[C@@H](CCCNC(=N)N)C(=O)N[C@H](C(N)=O)C(C)C)[C@@H](C)CC)C(=O)O
# B2: SEQ ID NO: 23 (peptide)
# peptide: IVLSLD[dV]PTKLK([γGlu-Palmitoyl])QKLLKQERQRKER[Aib]QAEKNKRILERV-NH2
# modifications: N-terminus assumed
# SMILES: CCCCCCCCCCCCCCCC(=O)N[C@@H](CCC(=O)NCCCC[C@H](NC(=O)[C@H](CC(C)C)NC(=O)[C@H](CCCCN)NC(=O)[C@@H](NC(=O)[C@@H]1CCCN1C(=O)[C@H](NC(=O)[C@H](CC(=O)O)NC(=O)[C@H](CC(C)C)NC(=O)[C@H](CO)NC(=O)[C@H](CC(C)C)NC(=O)[C@@H](NC(=O)[C@@H](N)[C@@H](C)CC)C(C)C)C(C)C)[C@@H](C)O)C(=O)N[C@@H](CCC(N)=O)C(=O)N[C@@H](CCCCN)C(=O)N[C@@H](CC(C)C)C(=O)N[C@@H](CC(C)C)C(=O)N[C@@H](CCCCN)C(=O)N[C@@H](CCC(N)=O)C(=O)N[C@@H](CCC(=O)O)C(=O)N[C@@H](CCCNC(=N)N)C(=O)N[C@@H](CCC(N)=O)C(=O)N[C@@H](CCCNC(=N)N)C(=O)N[C@@H](CCCCN)C(=O)N[C@@H](CCC(=O)O)C(=O)N[C@@H](CCCNC(=N)N)C(=O)NC(C)(C)C(=O)N[C@@H](CCC(N)=O)C(=O)N[C@@H](C)C(=O)N[C@@H](CCC(=O)O)C(=O)N[C@@H](CCCCN)C(=O)N[C@@H](CC(N)=O)C(=O)N[C@@H](CCCCN)C(=O)N[C@@H](CCCNC(=N)N)C(=O)N[C@H](C(=O)N[C@@H](CC(C)C)C(=O)N[C@@H](CCC(=O)O)C(=O)N[C@@H](CCCNC(=N)N)C(=O)N[C@H](C(N)=O)C(C)C)[C@@H](C)CC)C(=O)O
# B3: SEQ ID NO: 24 (peptide)
# peptide: IVLSLD[dV]PTKLK([AEEA-AEEA-γGlu-C18 diacid])QKLLKQERQRKEREQAEKNKRILERV-NH2
# modifications: N-terminus assumed
# SMILES: CC[C@H](C)[C@H](N)C(=O)N[C@H](C(=O)N[C@@H](CC(C)C)C(=O)N[C@@H](CO)C(=O)N[C@@H](CC(C)C)C(=O)N[C@@H](CC(=O)O)C(=O)N[C@@H](C(=O)N1CCC[C@H]1C(=O)N[C@H](C(=O)N[C@@H](CCCCN)C(=O)N[C@@H](CC(C)C)C(=O)N[C@@H](CCCCNC(=O)COCCOCCNC(=O)COCCOCCNC(=O)CC[C@H](NC(=O)CCCCCCCCCCCCCCCCC(=O)O)C(=O)O)C(=O)N[C@@H](CCC(N)=O)C(=O)N[C@@H](CCCCN)C(=O)N[C@@H](CC(C)C)C(=O)N[C@@H](CC(C)C)C(=O)N[C@@H](CCCCN)C(=O)N[C@@H](CCC(N)=O)C(=O)N[C@@H](CCC(=O)O)C(=O)N[C@@H](CCCNC(=N)N)C(=O)N[C@@H](CCC(N)=O)C(=O)N[C@@H](CCCNC(=N)N)C(=O)N[C@@H](CCCCN)C(=O)N[C@@H](CCC(=O)O)C(=O)N[C@@H](CCCNC(=N)N)C(=O)N[C@@H](CCC(=O)O)C(=O)N[C@@H](CCC(N)=O)C(=O)N[C@@H](C)C(=O)N[C@@H](CCC(=O)O)C(=O)N[C@@H](CCCCN)C(=O)N[C@@H](CC(N)=O)C(=O)N[C@@H](CCCCN)C(=O)N[C@@H](CCCNC(=N)N)C(=O)N[C@H](C(=O)N[C@@H](CC(C)C)C(=O)N[C@@H](CCC(=O)O)C(=O)N[C@@H](CCCNC(=N)N)C(=O)N[C@H](C(N)=O)C(C)C)[C@@H](C)CC)[C@@H](C)O)C(C)C)C(C)C
# B4: SEQ ID NO: 27 (peptide)
# peptide: IVLSLD[dV]PTKLK([γGlu-Palmitoyl])KKLLKQERKRKEREQAEKNARILERV-NH2
# modifications: N-terminus assumed
# SMILES: CCCCCCCCCCCCCCCC(=O)N[C@@H](CCC(=O)NCCCC[C@H](NC(=O)[C@H](CC(C)C)NC(=O)[C@H](CCCCN)NC(=O)[C@@H](NC(=O)[C@@H]1CCCN1C(=O)[C@H](NC(=O)[C@H](CC(=O)O)NC(=O)[C@H](CC(C)C)NC(=O)[C@H](CO)NC(=O)[C@H](CC(C)C)NC(=O)[C@@H](NC(=O)[C@@H](N)[C@@H](C)CC)C(C)C)C(C)C)[C@@H](C)O)C(=O)N[C@@H](CCCCN)C(=O)N[C@@H](CCCCN)C(=O)N[C@@H](CC(C)C)C(=O)N[C@@H](CC(C)C)C(=O)N[C@@H](CCCCN)C(=O)N[C@@H](CCC(N)=O)C(=O)N[C@@H](CCC(=O)O)C(=O)N[C@@H](CCCNC(=N)N)C(=O)N[C@@H](CCCCN)C(=O)N[C@@H](CCCNC(=N)N)C(=O)N[C@@H](CCCCN)C(=O)N[C@@H](CCC(=O)O)C(=O)N[C@@H](CCCNC(=N)N)C(=O)N[C@@H](CCC(=O)O)C(=O)N[C@@H](CCC(N)=O)C(=O)N[C@@H](C)C(=O)N[C@@H](CCC(=O)O)C(=O)N[C@@H](CCCCN)C(=O)N[C@@H](CC(N)=O)C(=O)N[C@@H](C)C(=O)N[C@@H](CCCNC(=N)N)C(=O)N[C@H](C(=O)N[C@@H](CC(C)C)C(=O)N[C@@H](CCC(=O)O)C(=O)N[C@@H](CCCNC(=N)N)C(=O)N[C@H](C(N)=O)C(C)C)[C@@H](C)CC)C(=O)O
# B5: SEQ ID NO: 222 (peptide)
# peptide: IVLSLD[dV]PTKLK([γGlu-C16 diacid])QKLLKQERQRKEREQAEKNVRILERV-NH2
# modifications: N-terminus assumed
# SMILES: CC[C@H](C)[C@H](N)C(=O)N[C@H](C(=O)N[C@@H](CC(C)C)C(=O)N[C@@H](CO)C(=O)N[C@@H](CC(C)C)C(=O)N[C@@H](CC(=O)O)C(=O)N[C@@H](C(=O)N1CCC[C@H]1C(=O)N[C@H](C(=O)N[C@@H](CCCCN)C(=O)N[C@@H](CC(C)C)C(=O)N[C@@H](CCCCNC(=O)CC[C@H](NC(=O)CCCCCCCCCCCCCCC(=O)O)C(=O)O)C(=O)N[C@@H](CCC(N)=O)C(=O)N[C@@H](CCCCN)C(=O)N[C@@H](CC(C)C)C(=O)N[C@@H](CC(C)C)C(=O)N[C@@H](CCCCN)C(=O)N[C@@H](CCC(N)=O)C(=O)N[C@@H](CCC(=O)O)C(=O)N[C@@H](CCCNC(=N)N)C(=O)N[C@@H](CCC(N)=O)C(=O)N[C@@H](CCCNC(=N)N)C(=O)N[C@@H](CCCCN)C(=O)N[C@@H](CCC(=O)O)C(=O)N[C@@H](CCCNC(=N)N)C(=O)N[C@@H](CCC(=O)O)C(=O)N[C@@H](CCC(N)=O)C(=O)N[C@@H](C)C(=O)N[C@@H](CCC(=O)O)C(=O)N[C@@H](CCCCN)C(=O)N[C@@H](CC(N)=O)C(=O)N[C@H](C(=O)N[C@@H](CCCNC(=N)N)C(=O)N[C@H](C(=O)N[C@@H](CC(C)C)C(=O)N[C@@H](CCC(=O)O)C(=O)N[C@@H](CCCNC(=N)N)C(=O)N[C@H](C(N)=O)C(C)C)[C@@H](C)CC)C(C)C)[C@@H](C)O)C(C)C)C(C)C
# B6: SEQ ID NO: 224 (peptide)
# peptide: IVLSLD[dV]PTKLK([AEEA-AEEA-γGlu-C20 diacid])KKLLKQERKR[Aib]EREKAEKAARILERV-NH2
# B7: SEQ ID NO: 25 (peptide)
# peptide: IVLSLD[dV]PTKLK([γGlu-Palmitoyl])KKLLKQERKRKEREKAEKNARILERV-NH2
# modifications: N-terminus assumed
# SMILES: CCCCCCCCCCCCCCCC(=O)N[C@@H](CCC(=O)NCCCC[C@H](NC(=O)[C@H](CC(C)C)NC(=O)[C@H](CCCCN)NC(=O)[C@@H](NC(=O)[C@@H]1CCCN1C(=O)[C@H](NC(=O)[C@H](CC(=O)O)NC(=O)[C@H](CC(C)C)NC(=O)[C@H](CO)NC(=O)[C@H](CC(C)C)NC(=O)[C@@H](NC(=O)[C@@H](N)[C@@H](C)CC)C(C)C)C(C)C)[C@@H](C)O)C(=O)N[C@@H](CCCCN)C(=O)N[C@@H](CCCCN)C(=O)N[C@@H](CC(C)C)C(=O)N[C@@H](CC(C)C)C(=O)N[C@@H](CCCCN)C(=O)N[C@@H](CCC(N)=O)C(=O)N[C@@H](CCC(=O)O)C(=O)N[C@@H](CCCNC(=N)N)C(=O)N[C@@H](CCCCN)C(=O)N[C@@H](CCCNC(=N)N)C(=O)N[C@@H](CCCCN)C(=O)N[C@@H](CCC(=O)O)C(=O)N[C@@H](CCCNC(=N)N)C(=O)N[C@@H](CCC(=O)O)C(=O)N[C@@H](CCCCN)C(=O)N[C@@H](C)C(=O)N[C@@H](CCC(=O)O)C(=O)N[C@@H](CCCCN)C(=O)N[C@@H](CC(N)=O)C(=O)N[C@@H](C)C(=O)N[C@@H](CCCNC(=N)N)C(=O)N[C@H](C(=O)N[C@@H](CC(C)C)C(=O)N[C@@H](CCC(=O)O)C(=O)N[C@@H](CCCNC(=N)N)C(=O)N[C@H](C(N)=O)C(C)C)[C@@H](C)CC)C(=O)O
# Molecular target: human corticotropin-releasing factor 2α (CRF2 α receptor) (human), Q13324
# Sequence (Q13324 20-411): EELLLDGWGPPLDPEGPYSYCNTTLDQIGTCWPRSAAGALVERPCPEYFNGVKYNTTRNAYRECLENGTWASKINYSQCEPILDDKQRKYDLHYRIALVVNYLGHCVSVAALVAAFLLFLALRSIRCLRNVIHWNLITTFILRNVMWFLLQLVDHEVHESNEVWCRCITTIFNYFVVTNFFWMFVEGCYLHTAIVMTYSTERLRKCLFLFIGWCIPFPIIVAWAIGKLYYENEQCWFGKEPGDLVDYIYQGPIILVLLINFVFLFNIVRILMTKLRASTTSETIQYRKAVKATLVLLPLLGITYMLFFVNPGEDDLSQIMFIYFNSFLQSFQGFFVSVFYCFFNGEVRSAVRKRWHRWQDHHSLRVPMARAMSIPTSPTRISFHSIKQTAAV
# Experiment: cell-based or functional assay
row,"EC50 [nM], 0% HSA",Binder
1,0.01 nM,B1
2,0.02 nM,B2
3,6.95 nM,B3
4,0.01 nM,B4
5,0.01 nM,B5
6,6.85 nM,B6
7,0.09 nM,B7
